According to patent US20220354960A1, “IMMUNE CHECKPOINT BLOCKING BISPECIFIC MOLECULES” (THE SCRIPPS RESEARCH INSTITUTE, priority 2019, published 2022):

What was measured:
[1] = target: MC1R on B16-SIY cells (mouse) (UniProt Q01727); test: cell-based or functional assay
[2] = target: human MC1R on HEK293 cells that overexpress it (human) (UniProt Q01726); test: cell-based or functional assay
[3] = target: human MC1R on HEK293 cells that overexpress it (human) (UniProt Q01726); test: cell surface ELISA on fixed HEK293-MC1R cells
[4] = target: human PD-L1 (extracellular domain)-Fc fusion protein (human) (UniProt Q9NZQ7); test: ELISA, PD-L1-Fc coated, detection with HRP anti-human kappa light chain antibody
Sequence of human PD-L1 (extracellular domain)-Fc fusion protein (human) (Q9NZQ7 19-238): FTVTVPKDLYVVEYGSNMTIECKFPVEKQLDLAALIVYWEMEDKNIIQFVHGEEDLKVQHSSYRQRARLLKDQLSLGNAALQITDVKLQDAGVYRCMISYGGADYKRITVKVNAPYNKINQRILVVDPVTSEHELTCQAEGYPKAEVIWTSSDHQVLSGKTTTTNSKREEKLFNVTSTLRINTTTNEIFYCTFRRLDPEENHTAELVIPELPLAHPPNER

[5] = target: human PD-L1 (extracellular domain)-Fc fusion protein (human) (UniProt Q9NZQ7); test: ELISA on human PD-L1 (extracellular domain)-Fc fusion protein

Sequence of MC1R on B16-SIY cells (mouse) (Q01727 whole entry): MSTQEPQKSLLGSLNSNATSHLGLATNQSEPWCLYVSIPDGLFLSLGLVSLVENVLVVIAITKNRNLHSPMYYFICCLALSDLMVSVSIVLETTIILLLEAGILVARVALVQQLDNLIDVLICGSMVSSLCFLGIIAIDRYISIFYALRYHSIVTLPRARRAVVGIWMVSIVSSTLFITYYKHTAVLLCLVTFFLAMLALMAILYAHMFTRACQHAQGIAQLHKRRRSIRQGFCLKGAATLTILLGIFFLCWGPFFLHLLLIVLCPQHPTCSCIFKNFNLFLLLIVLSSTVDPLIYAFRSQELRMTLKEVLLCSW
Sequence of human MC1R on HEK293 cells that overexpress it (human) (Q01726 whole entry, the tested form may be a part): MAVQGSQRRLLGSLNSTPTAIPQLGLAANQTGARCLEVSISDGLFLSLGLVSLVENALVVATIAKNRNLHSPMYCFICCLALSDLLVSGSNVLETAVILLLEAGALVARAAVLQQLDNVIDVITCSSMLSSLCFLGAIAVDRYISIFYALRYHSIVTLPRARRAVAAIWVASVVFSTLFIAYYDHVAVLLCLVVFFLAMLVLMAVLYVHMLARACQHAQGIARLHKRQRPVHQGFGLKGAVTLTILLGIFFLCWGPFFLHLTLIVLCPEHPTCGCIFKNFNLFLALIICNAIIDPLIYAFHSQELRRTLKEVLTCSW

Substance | B16-SIY cells cAMP-Glo Assay, EC50 [1] [nM] | CRE-Luc reporter in HEK 293 cells overexpressing MC1R, EC50 [2] [nM] | EC50 [3] [nM] | EC50 [4] [nM] | EC50 [5] [nM]
NDP-MSH-Synagis (control antibody Synagis conjugated at the heavy chain N-terminal serine to H2NO-NDP-MSH) | 0.06 | – | – | – | –
NDP-MSH peptide ([Nle4, D-Phe7]-MSH) | 0.06 | 0.09 | – | – | –
NDP-MSH-αPD-L1 conjugate (Avelumab with NDP-MSH conjugated to lysines through BCN/PEG24, LAR about 3.5) (bispecific antibody) | – | 2.7 | 1.72 | 0.17 | –
NDP-MSH-αPD-L1 N-terminal conjugate (Atezolizumab with engineered heavy chain N-terminal serine and 8x(G4S) linker, oxime-ligated to H2NO-NDP-MSH, LAR 2) (bispecific antibody) | 0.02 | – | – | – | 0.087
